{
  "source": "the supplement of paper PMC9170038",
  "key": {"MS2 coat protein [1]": {"test_system": "MS2 coat protein", "assay": "apparent KD of MS2 coat protein; designed switch direction (-1 OFF switch, 1 ON switch): -1; higher = weaker reporter binding", "settings": "Eterna round: R98", "procedure": "(§1)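 RNA-MaP: designed FMN/MS2 RNA switches (84 nt design region) are transcribed on-chip within common flanks and titrated with SNAP-549-labelled MS2 coat protein (about 1-3000 nM) in 100 mM Tris pH 7.5, 80 mM KCl, 4 mM MgCl2, without or with 200 uM FMN. Median apparent KD per design; activation ratio = KD,OFF / KD,ON.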"}, "MS2 coat protein [2]": {"test_system": "MS2 coat protein", "assay": "apparent KD of MS2 coat protein; higher = weaker reporter binding", "settings": "Eterna round: R101", "procedure": "as §1"}},
  "data": [
    {"sequence": "GGUACUCAAAGAGUACCAAUACGAACAUGAGGAUCACCCAUGUAGGAUAUGCUACUCAAAGAGUAGCAGAAGGACAUGUGCCUA [OmeiMod 7 - Jieux - Exclusion NG 3]", "values": [
      {"measurement": "apparent KD of MS2 coat protein", "setting": "MS2 coat protein [1]; input ligand: FMN 200 uM", "value": 0.422, "unit": "µM"},
      {"measurement": "apparent KD of MS2 coat protein", "setting": "MS2 coat protein [1]; input ligand: none", "value": 0.0387, "unit": "µM"}
    ]},
    {"sequence": "GGCAGCCCUCAGAAGGGAGUGCGAUAAUCGCACUCAGGAUAUGAGGAUCACCCAUAUCAAGCUGCCACUGAGGCAAAGCCUCAG [#SharedSequence - IEx NG 1-1] (puzzle (switch architecture): Inverted Exclusion NG 1)", "values": [
      {"measurement": "apparent KD of MS2 coat protein", "setting": "MS2 coat protein [2]; input ligand: FMN 200 uM", "value": 0.0574, "unit": "µM"},
      {"measurement": "apparent KD of MS2 coat protein", "setting": "MS2 coat protein [2]; input ligand: none", "value": 0.0121, "unit": "µM"}
    ]},
    {"sequence": "UUGCUCAAUUGGGCAGGGACCUCACAUGAGGAUCACCCAUGUCAGGAUAUCCUAGUUUGGACGUAGGAGAAGGGACGGAGUAUC [Usanat]", "values": [
      {"measurement": "apparent KD of MS2 coat protein", "setting": "MS2 coat protein [1]; input ligand: FMN 200 uM", "value": 0.25, "unit": "µM"},
      {"measurement": "apparent KD of MS2 coat protein", "setting": "MS2 coat protein [1]; input ligand: none", "value": 0.167, "unit": "µM"}
    ]},
    {"sequence": "ACACGUCGUGAGAAGGAGGAUCACCCUUUCGAAAGAAAUAGCCACCGUGAAAACGGUGGCAAAUCCUAGGAUAUCACGACGUGA [#SharedSequence - IExNG2: 4] (puzzle (switch architecture): Inverted Exclusion NG 2)", "values": [
      {"measurement": "apparent KD of MS2 coat protein", "setting": "MS2 coat protein [2]; input ligand: FMN 200 uM", "value": 0.0418, "unit": "µM"},
      {"measurement": "apparent KD of MS2 coat protein", "setting": "MS2 coat protein [2]; input ligand: none", "value": 0.551, "unit": "µM"}
    ]},
    {"sequence": "UAUAUAUAGGCAGGAUAUACAUGUAUAUAUAAUUUAUUAUAUAUUAUUACAUGAGGAUCACCCAUGUAGAAGGGCCAUAUUAUA [LRO037_Exclusion NG 2]", "values": [
      {"measurement": "apparent KD of MS2 coat protein", "setting": "MS2 coat protein [1]; input ligand: FMN 200 uM", "value": 0.0512, "unit": "µM"},
      {"measurement": "apparent KD of MS2 coat protein", "setting": "MS2 coat protein [1]; input ligand: none", "value": 0.0301, "unit": "µM"}
    ]},
    {"sequence": "ACAGGUCGUGAGAAGGAGAGUGGCACCGUCGAAAGACGGUGCAACUAGAAACCUAGAGGAUCACCCUAGGAUAUCACGACCUGA [#SharedSequence - IExNG2: 11] (puzzle (switch architecture): Inverted Exclusion NG 2)", "values": [
      {"measurement": "apparent KD of MS2 coat protein", "setting": "MS2 coat protein [2]; input ligand: FMN 200 uM", "value": 0.00646, "unit": "µM"},
      {"measurement": "apparent KD of MS2 coat protein", "setting": "MS2 coat protein [2]; input ligand: none", "value": 0.00632, "unit": "µM"}
    ]},
    {"sequence": "AGAUGACAAAGUCAUCUCGCUCUGACAUGAGGAUCACCCAUGUAGGAUAUAUUACUCAAAGAGUAAUAGAAGGACAUGUUUCUG [Ex NG2 #64]", "values": [
      {"measurement": "apparent KD of MS2 coat protein", "setting": "MS2 coat protein [1]; input ligand: FMN 200 uM", "value": 0.0655, "unit": "µM"},
      {"measurement": "apparent KD of MS2 coat protein", "setting": "MS2 coat protein [1]; input ligand: none", "value": 0.036, "unit": "µM"}
    ]},
    {"sequence": "GUUAUCUCAUGUUCGACGGACAUGAGGAUCACCCAUGUACCUUAGGAUAUUGAUGAAAUAUGGCGCAAGAAGGAAGGUAACGCU [EternaBot964] (puzzle (switch architecture): Exclusion NG 3)", "values": [
      {"measurement": "apparent KD of MS2 coat protein", "setting": "MS2 coat protein [2]; input ligand: FMN 200 uM", "value": 0.00751, "unit": "µM"}
    ]},
    {"sequence": "GUCACGAAUGUAGGAUAUCGAGUGGAUAACACUCGAGAAGGACAUGAGGAUCACCCAUGUCAAAUGAAAGAUAAUAAACGUGAC [Exclsuion NG 1/3-B2]", "values": [
      {"measurement": "apparent KD of MS2 coat protein", "setting": "MS2 coat protein [1]; input ligand: FMN 200 uM", "value": 0.0206, "unit": "µM"},
      {"measurement": "apparent KD of MS2 coat protein", "setting": "MS2 coat protein [1]; input ligand: none", "value": 0.0158, "unit": "µM"}
    ]},
    {"sequence": "CUUAGUUUGUAGAAGGGUGACAUGAGGAUCACCCAUGUGCGUAGCCUGAAAGACCAGGGUACGCCACAGGAUAUACAAAGUAAG [Onenisa] (puzzle (switch architecture): Inverted Same State NG 2)", "values": [
      {"measurement": "apparent KD of MS2 coat protein", "setting": "MS2 coat protein [2]; input ligand: FMN 200 uM", "value": 0.0849, "unit": "µM"},
      {"measurement": "apparent KD of MS2 coat protein", "setting": "MS2 coat protein [2]; input ligand: none", "value": 0.0574, "unit": "µM"}
    ]},
    {"sequence": "AAAUAAAUUGAAGGAUAUGACCCUCGAGGUGACUAAAAGUCACCUCGAGGGUCAGAAGGUCGAGGAUCACCCGACCUAAAUAAA [#SharedSequence SLExNG1: 4-1] (puzzle (switch architecture): Small Loop Exclusion NG 1)", "values": [
      {"measurement": "apparent KD of MS2 coat protein", "setting": "MS2 coat protein [2]; input ligand: FMN 200 uM", "value": 0.00819, "unit": "µM"},
      {"measurement": "apparent KD of MS2 coat protein", "setting": "MS2 coat protein [2]; input ligand: none", "value": 0.00716, "unit": "µM"}
    ]},
    {"sequence": "CAGAUAAAAGUGAGGUCGUCGACAUGAGGAUCACCCAUGUACGAGGAUAUGUAAUAUACGGUAUAGCAGAAGGCGUAUGGGUGU [Edrageer]", "values": [
      {"measurement": "apparent KD of MS2 coat protein", "setting": "MS2 coat protein [1]; input ligand: FMN 200 uM", "value": 0.12, "unit": "µM"},
      {"measurement": "apparent KD of MS2 coat protein", "setting": "MS2 coat protein [1]; input ligand: none", "value": 0.0305, "unit": "µM"}
    ]}
  ]
}
